Bridge positions count the residues as written; N and C are the ends. Ends that are not written are not given here.
Assays:
[1] = target: T1, C5 (Homo sapiens, UniProt P01031); assay: Phage clone binding to biotinylated C5 (neutravidin capture, anti-M13 antibody detection); details: phage clones, FIG. 1
T1 construct: purchased Advanced Research Technologies
Description: FIG. 1 is a bar graph depicting the binding of peptide #1, peptide #2, and peptide #3 to C5. […] Wild-type M13 phage without a peptide fused to the pill protein was used as a negative control for this assay.
To confirm that Peptides 1, 2, and 3 (Sequence I. D. Nos:1, 2, and 3, respectively) bind C5, the phage clones were tested in a binding assay with increasing amounts of phage incubated with constant biotinylated C5, captured on a neutravidin plate and detected with an anti-phage antibody. Increasing concentrations of each phage clone were incubated for 2 hours with 200 ng of biotinylated C5 in PBS containing 0.5% BSA. The phage bound C5 complex was captured on a neutravidin coated microplate for 20 minutes at room temperature and then washed well. A peroxidase labeled anti-M13 antibody (Pharmacia) was used to detect the amount of phage bound to C5 with OPD substrate.

[2] = tested on: E. coli strain 07:K1:NM (ATCC 23503); assay: Bactericidal assay, complement-mediated killing in pooled human plasma, colony count; format: cell-based; details: 100 uM peptide, one hour 37° C.; plasma alone 71%
Description: FIG. 4 is a bar graph depicting bacteriocidal activity of peptides against E. coli O7:K1:NM. Controls were run with plasma alone, complement inactivated (heat inactivated) plasma, and PBS/0.5% BSA.
The ability of Peptides 1- 3 to enhance complement-mediated killing of bacteria was examined. A virulent strain of E. coli that was chosen for the assays. E. coli strain 07:K1:NM (ATCC 23503), a strain less susceptible to complement mediated killing than most strains of E. coli, were grown in LB media to an optical density (OD) at 600 nm between 0.3 to 0.4 at 37° C. The cells were washed and resuspended in PBS containing 0.5% BSA and the concentration of cells determined from the OD at 600 nm. The cells were diluted in PBS/0.5% BSA to a concentration of 2×10^5 cfu/mL and 100 ul of cells were added to 100 ul of pooled human plasma containing 100 uM of peptide. The sample was incubated for one hour at 37° C. 10 ul aliquots were removed before and after the incubation and bacterial survival was examined by the colony count method (counting cells on LB agar before and after incubation). Heat inactivated plasma (56° C., 30 min.), plasma with no peptide, and PBS/0.5% BSA were also incubated with the cells as controls.

[3] = tested on: classical pathway; assay: Classical pathway hemolytic assay, antibody sensitized sheep erythrocytes in pooled human plasma; format: cell-based; details: disulfide bond reduced and cysteines alkylated; data not shown
Description: FIGS. 2A and 2B are bar graphs depicting percent hemolysis above control versus peptide concentration with peptides 1, 2, and 3 for classical pathway activation (FIG. 2A), and alternative pathway activation (FIG. 2B). Percent hemolysis above control is the percent lysis of erythrocytes for each peptide concentration minus the lysis of erythrocytes in the absence of peptide.
Activation of the classical and alternative pathway by the peptides was measured using standard hemolysis assays. For the classical pathway various concentrations of peptide were incubated with 50 ul pooled human plasma (diluted 1:30 with GVB++), 5×10^7 antibody sensitized sheep erythrocyte cells, and GVB++buffer to a final volume of 200 ul. The reaction was incubated at 37° C. for one hour and centrifuged. The percentage of lysis was determined by measuring the optical density of the supernatant at 414 nm. […] Lysis of the erythrocytes was not observed when the peptides were incubated in the absences of a source of complement (plasma). The peptides altered the activity of the complement protein(s) and increased the level of activation of the complement cascade resulting in an increase in hemolysis. Furthermore, when the disulfide bond of peptide 2 was reduced and the cysteines alkylated, enhancement of erythrocyte lysis was reduced (data not shown).

T1 sequence (P01031 19-1676): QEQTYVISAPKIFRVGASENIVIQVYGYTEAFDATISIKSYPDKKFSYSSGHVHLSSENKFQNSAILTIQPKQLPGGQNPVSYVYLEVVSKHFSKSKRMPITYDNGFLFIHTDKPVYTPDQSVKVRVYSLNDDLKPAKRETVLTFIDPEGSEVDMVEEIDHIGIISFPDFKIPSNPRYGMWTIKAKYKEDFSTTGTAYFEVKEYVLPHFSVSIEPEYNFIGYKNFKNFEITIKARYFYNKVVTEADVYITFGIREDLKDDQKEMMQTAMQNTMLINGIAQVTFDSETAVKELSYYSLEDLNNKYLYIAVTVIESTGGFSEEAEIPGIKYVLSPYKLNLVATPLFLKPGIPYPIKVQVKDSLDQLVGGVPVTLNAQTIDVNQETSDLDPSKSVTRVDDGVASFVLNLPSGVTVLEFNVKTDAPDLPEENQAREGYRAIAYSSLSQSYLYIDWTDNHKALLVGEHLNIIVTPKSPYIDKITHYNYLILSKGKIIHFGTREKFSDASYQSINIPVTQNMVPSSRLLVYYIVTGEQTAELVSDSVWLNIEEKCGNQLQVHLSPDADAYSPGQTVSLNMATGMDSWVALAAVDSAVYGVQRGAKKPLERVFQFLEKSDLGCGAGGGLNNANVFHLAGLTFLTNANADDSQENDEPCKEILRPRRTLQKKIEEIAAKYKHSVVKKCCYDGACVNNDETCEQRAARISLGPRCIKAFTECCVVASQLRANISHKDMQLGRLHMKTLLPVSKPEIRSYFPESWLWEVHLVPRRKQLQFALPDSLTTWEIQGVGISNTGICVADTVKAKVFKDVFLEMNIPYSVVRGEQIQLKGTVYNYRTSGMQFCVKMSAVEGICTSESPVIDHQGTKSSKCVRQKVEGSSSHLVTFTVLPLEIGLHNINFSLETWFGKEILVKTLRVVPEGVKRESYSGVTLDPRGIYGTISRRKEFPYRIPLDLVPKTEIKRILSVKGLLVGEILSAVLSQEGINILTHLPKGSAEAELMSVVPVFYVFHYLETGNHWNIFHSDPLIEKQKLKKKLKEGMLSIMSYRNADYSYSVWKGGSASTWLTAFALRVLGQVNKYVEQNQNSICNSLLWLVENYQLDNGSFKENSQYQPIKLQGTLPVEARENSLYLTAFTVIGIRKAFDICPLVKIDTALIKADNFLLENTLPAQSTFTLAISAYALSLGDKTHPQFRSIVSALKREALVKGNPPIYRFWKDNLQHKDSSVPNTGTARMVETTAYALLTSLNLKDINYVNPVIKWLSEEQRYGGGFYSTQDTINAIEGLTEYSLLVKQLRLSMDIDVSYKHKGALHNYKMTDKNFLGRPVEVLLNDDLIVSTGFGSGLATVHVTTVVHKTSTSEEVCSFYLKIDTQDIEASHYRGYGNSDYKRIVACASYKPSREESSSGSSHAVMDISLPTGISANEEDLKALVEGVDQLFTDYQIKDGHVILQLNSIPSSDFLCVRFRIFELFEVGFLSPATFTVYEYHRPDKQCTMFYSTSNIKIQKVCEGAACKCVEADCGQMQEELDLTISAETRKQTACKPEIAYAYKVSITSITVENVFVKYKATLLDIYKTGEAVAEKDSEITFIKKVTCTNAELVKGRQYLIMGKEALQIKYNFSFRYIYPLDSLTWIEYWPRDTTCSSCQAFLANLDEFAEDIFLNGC

| Sequence | relative affinity for C5 (rank order) [1] | bacterial survival [2] [%] | enhancement of erythrocyte lysis [3] |
| --- | --- | --- | --- |
| CLSAHHHMC (YCLSAHHHMCGGG; disulfide 2-10 (inferred)) [Peptide 1, synthetic form has added N terminal tyrosine and three C terminal glycines] | tightest relative affinity | 23 | – |
| CPGKASPWC (YCPGKASPWCGGG; disulfide 2-10 (inferred)) [Peptide 3, synthetic form has added N terminal tyrosine and three C terminal glycines] | then Peptide 3 | – | – |
| CPSSPPHMC (YCPSSPPHMCGGG; disulfide 2-10 (inferred)) [Peptide 2, synthetic form has added N terminal tyrosine and three C terminal glycines] | followed by Peptide 2 | – | reduced |

From patent US20050090447A1, “Peptides that promote complement activation” (Baxter International Inc., priority 2003, published 2005)
